The results in this text go back to US20260132194A1 (XBIOTECH, published 2026).

The target of the assay is T1, recombinant human interleukin 1 alpha (IL-1α) (human, UniProt P01583 113-271).
T1 sequence (looked up): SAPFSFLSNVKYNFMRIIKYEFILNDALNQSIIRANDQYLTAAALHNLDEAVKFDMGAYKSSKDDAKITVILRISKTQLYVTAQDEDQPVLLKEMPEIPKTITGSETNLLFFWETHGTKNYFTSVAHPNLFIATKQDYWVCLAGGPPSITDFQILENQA
Briefly: cell-based or functional assay.

B1: XIA14 human monoclonal antibody (antibody, V domains shown)
VH: QVQLVQSGAEVKKPGSSVKVSCKASGGRFTNYAILWVRQAPGQGLQWLGGIIPIFDETDHAQDFQDRLTITVDESMTTAYMELSSLRPEDTAIYYCATGSNSYYGLYWGQGTLVTVSS
VL: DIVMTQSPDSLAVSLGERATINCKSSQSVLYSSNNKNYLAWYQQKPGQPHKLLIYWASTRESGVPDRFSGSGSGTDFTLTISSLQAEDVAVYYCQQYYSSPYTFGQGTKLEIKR
B1: the “HUVEC-based potency assay IC50 (ICAM-1 expression by flow cytometry)” value is 5 ng/mL.
